Changes are numbered by the printed parent chain. In names and notes the source's numbering stands.
T1: Axl protein (human, UniProt P30530 26-451)
T1 construct: extracellular domain; also called human Axl; hAxl
T1 sequence (looked up): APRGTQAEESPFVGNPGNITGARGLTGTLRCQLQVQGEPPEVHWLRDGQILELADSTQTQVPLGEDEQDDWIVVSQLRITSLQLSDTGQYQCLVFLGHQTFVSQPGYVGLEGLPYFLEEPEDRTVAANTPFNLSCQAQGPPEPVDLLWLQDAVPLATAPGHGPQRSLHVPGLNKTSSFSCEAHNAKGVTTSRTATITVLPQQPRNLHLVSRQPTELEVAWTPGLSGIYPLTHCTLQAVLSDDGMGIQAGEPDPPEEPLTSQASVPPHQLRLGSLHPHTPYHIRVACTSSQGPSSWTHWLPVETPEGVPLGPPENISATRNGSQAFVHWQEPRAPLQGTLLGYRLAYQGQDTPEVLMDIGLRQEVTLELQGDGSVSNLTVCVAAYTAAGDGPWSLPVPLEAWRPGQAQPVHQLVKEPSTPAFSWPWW

B1: LC-V029D (antibody, V domains shown)
VH: EVQLVQSGAEVKKPGATVKISCKVSGYSFTGHTMNWIRQPPGKGLEWIGLIKPSNGGTSYNQKFKGRVTISADKSISTAYLQWSSLKASDTAMYYCAHGHYESYFAMDYWGQGTLVTVSS
VL: DIQMTQSPSSLSASVGDRVTITCKASQDDSSAVAWYQQKPGQAPRLLIYWASTRHTGVPSRFSGSGSGTEFTLTISSLQPDDFATYYCQEHFSTPLTFGQGTKVEIK
B2: LC-F092E (antibody, V domains shown)
VH: B1 VH
VL: B1 VL with D29V, F92E
B3: LC-A051P (antibody, V domains shown)
VH: B1 VH
VL: B1 VL with D29V, A51P
B4: LC-W050F (antibody, V domains shown)
VH: B1 VH
VL: B1 VL with D29V, W50F
B5: LC-A032M (antibody, V domains shown)
VH: B1 VH
VL: B1 VL with D29V, A32M
B6: LC-H091T (antibody, V domains shown)
VH: B1 VH
VL: B1 VL with D29V, H91T
B7: LC-F092G (antibody, V domains shown)
VH: B1 VH
VL: B1 VL with D29V, F92G
B8: LC-A034D (antibody, V domains shown)
VH: B1 VH
VL: B1 VL with D29V, A34D
B9: LC-F092S (antibody, V domains shown)
VH: B1 VH
VL: B1 VL with D29V, F92S
B10: LC-A051I (antibody, V domains shown)
VH: B1 VH
VL: B1 VL with D29V, A51I
B11: LC-F092D (antibody, V domains shown)
VH: B1 VH
VL: B1 VL with D29V, F92D
B12: LC-H091Y (antibody, V domains shown)
VH: B1 VH
VL: B1 VL with D29V, H91Y
B13: LC-P095C (antibody, V domains shown)
VH: B1 VH
VL: B1 VL with D29V, P95C
B14: LC-V029N (antibody, V domains shown)
VH: B1 VH
VL: B1 VL with D29N
B15: LC-A032L (antibody, V domains shown)
VH: B1 VH
VL: B1 VL with D29V, A32L
B16: LC-A051N (antibody, V domains shown)
VH: B1 VH
VL: B1 VL with D29V, A51N
B17: LC-F092C (antibody, V domains shown)
VH: B1 VH
VL: B1 VL with D29V, F92C
B18: LC-F092N (antibody, V domains shown)
VH: B1 VH
VL: B1 VL with D29V, F92N
B19: LC-V029W (antibody, V domains shown)
VH: B1 VH
VL: B1 VL with D29W
B20: LC-A034Q (antibody, V domains shown)
VH: B1 VH
VL: B1 VL with D29V, A34Q
B21: LC-A034N (antibody, V domains shown)
VH: B1 VH
VL: B1 VL with D29V, A34N
B22: LC-P095A (antibody, V domains shown)
VH: B1 VH
VL: B1 VL with D29V, P95A
B23: LC-T094C (antibody, V domains shown)
VH: B1 VH
VL: B1 VL with D29V, T94C
B24: LC-H091S (antibody, V domains shown)
VH: B1 VH
VL: B1 VL with D29V, H91S
B25: LC-H091V (antibody, V domains shown)
VH: B1 VH
VL: B1 VL with D29V, H91V
B26: LC-V029G (antibody, V domains shown)
VH: B1 VH
VL: B1 VL with D29G

Target: T1, Axl protein
Test: ELISA, 1:3 dilution, pH 6.0 over pH 7.4

Affinity ELISA CPE mutant ratio (1:3, pH 6.0/7.4) [ratio]	Binder
2.88	B1
1.76	B2
1.92	B3
2.25	B4
4.76	B5
3.78	B6
3.69	B7
3	B8
3.18	B9
2.24	B10
2.97	B11
3.93	B12
2.35	B13
2.6	B14
1.98	B15
1.41	B16
3.86	B17
1.93	B18
2.31	B19
2	B20
2.63	B21
2.52	B22
1.42	B23
1.76	B24
4.13	B25
1.94	B26

Target: T1, Axl protein
Test: ELISA, 1:9 dilution, pH 6.0 over pH 7.4

Affinity ELISA CPE mutant ratio (1:9, pH 6.0/7.4) [ratio]	Binder
2.68	B1
2	B2
1.57	B3
3.5	B4
2.92	B5
3.78	B6
4.76	B7
2.6	B8
2.94	B9
2.14	B10
2.94	B11
5.13	B12
2.63	B13
2.65	B14
2.27	B15
2.2	B16
4.58	B17
2	B18
2.35	B19
1.41	B20
2.4	B21
2.99	B22
1.77	B23
1.34	B24
1.17	B25
1.8	B26

— US20190177417A1 (BIOATLA, published 2019)
